pIC50: −log10 of the molar value. A value given as a limit tells only on which side of the number the result lay.

Common to all, as to assay: IEDB peptide-MHC binding, purified MHC/competitive/radioactivity; ≥ and ≤ were set here for values at or beyond the usual limits of such assays
What all share (conditions): source organism: Bordetella pertussis

The target in experiment [1] is HLA-B*07:02.
The target of experiment [2] is HLA-B*57:01.
Experiment [3] addresses HLA-B*53:01.
The target in experiment [4] is HLA-B*44:03.

For orientation: pIC50 means the IC50 on a negative log10 scale, so that one unit is a factor of ten. In the case of RVAPPAVAL, in experiment [1], the pIC50 is 6.46.

Turning to WTFHAGYRY, in experiment [2], the pIC50 is 5.85.

As for SGEGRVNIG, the pIC50 in experiment [3] was 5.50.

As for GATRAVDSL, the negative-log IC50 (pIC50) in experiment [1] was 4.16. On to AQGKALLYR, for which the pIC50 in experiment [4] was at most 4.15.

As for RASASRARI, the negative-log IC50 (pIC50) in experiment [2] is at most 4.15.

In the case of PASANTLLL, the negative-log IC50 (pIC50) in experiment [1] is 4.80. On to MHTIASILL, for which, in experiment [3], the negative-log IC50 (pIC50) is 5.13. Same read-out and setting: next, VVETAQPLP: 4.16.

The record behind these values is the Immune Epitope Database (IEDB).
